This is an account of results in patent US20080152587A1.

In the experiment the target is mouse uPAR on the surface of NCTC L929 cells (mouse) (UniProt P35456). As to the kind of experiment: FACS, NCTC L929 mouse cells, secondary alone.
Sequence of mouse uPAR on the surface of NCTC L929 cells (mouse) (P35456 24-298): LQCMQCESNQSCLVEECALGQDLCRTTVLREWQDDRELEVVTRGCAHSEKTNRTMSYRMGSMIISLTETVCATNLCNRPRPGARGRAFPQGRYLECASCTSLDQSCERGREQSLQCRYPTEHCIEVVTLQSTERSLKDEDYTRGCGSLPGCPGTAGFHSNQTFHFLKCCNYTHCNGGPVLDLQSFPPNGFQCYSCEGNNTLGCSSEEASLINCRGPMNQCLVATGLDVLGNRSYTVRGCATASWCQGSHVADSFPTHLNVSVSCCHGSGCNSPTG
In turn, “secondary antibody alone for mouse antibodies” registered a X Geo mean of 3.22.

With “secondary antibody alone, Cy5-labeled goat anti-human IgG Fc”, the X Geo mean was found to be 7.63.

On to “secondary antibody alone for rat antibodies”, for which the X Geo mean is 13.1.
